We go through 1 molecule from patent publication US20200255478A1, “NOVEL COMPOUNDS ACTIVATING THE NRF2 PATHWAY” (Almirall, S.A., priority 2017, published 2020).

Several values for one entry are separate records, joined by “and”; a condition that tells them apart may be missing. Equal values may be shown once. Positions of bridges follow the written chain, without caps; N, C: chain ends. Non-standard residues stand in square brackets, D forms with d. βAla = NCCC(=O)O

For this experiment, the target named is Keap1-Maltose Binding Protein (MBP tag), Q14145. As to the kind of experiment: TR-FRET competition vs ETGE-biotin; grade band per paragraph 615.
Chain of Keap1-Maltose Binding Protein (MBP tag), Q14145 (Q14145 321-609 limits assumed): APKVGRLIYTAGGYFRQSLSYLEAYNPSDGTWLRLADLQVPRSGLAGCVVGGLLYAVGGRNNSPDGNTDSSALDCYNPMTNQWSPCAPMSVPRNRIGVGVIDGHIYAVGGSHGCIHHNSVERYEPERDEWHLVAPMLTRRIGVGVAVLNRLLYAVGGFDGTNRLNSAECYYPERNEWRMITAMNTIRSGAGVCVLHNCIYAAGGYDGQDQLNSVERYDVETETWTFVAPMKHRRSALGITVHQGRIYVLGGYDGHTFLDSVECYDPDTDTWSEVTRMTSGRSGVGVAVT

B1: {[Stearyl-βAla-Leu-Gln-Cys(&1)-Asp-Pro-Glu-Thr-Gly-Glu-Cys(&2)-Leu-Pro-βAla-Arg-Lys-Lys-Arg-Arg-Gln- (peptide)
peptide: Stearyl-[βAla]LQCDPETGECLP[βAla]RKKRRQRRR-NH2
modifications: bridge 4-11; not fully specified (bridges); also: Cys4 and Cys11 cyclised, linker not given here
Regarding B1, the IC50 (as a rule, the concentration that inhibits the measured activity by half) is < 100 nM and > 1 nM.
